For assay [1], the system named is NCI-N87 gastric cancer xenograft. The assay is described as follows: In vivo efficacy study in NCI-N87 xenograft model. Set-up: species or system mice. The conditions noted are these: single intravenous dose 2 mg/kg (53 nmol drug/kg), day 33. From the text:
(§1) The ADC non-binding control was an anti-CD19 ADC (DAR 2.0) composed of the same linker-drug combination as ADC-3.

The test system of the next assay is Colo-205 cells. The assay is described as follows: Cell Titre-Glo (CTG) in vitro activity assay, Colo-205. It counts as cell-based, human. The conditions noted are these: 72 h, 10% FBS (FIG. 16).
Excerpt: as §1

For a further assay, the system named is Colo-205 xenograft. The conditions noted are these: CB17 SCID mice, single intravenous dose 2 mg/kg (53 nmol drug/kg), calculation based on day 16. As to the method:
Mice were subcutaneously inoculated into the right flank with 5×10^6 Colo-205 cells in 0.2 mL of DPBS mixed 1:1 with BD Matrigel. […] Tumour size was measured thrice weekly in two dimensions using a calliper, and the volume was expressed in mm^3 using the formula: V=0.5 a×b^2 where a and b are the long and short diameters of the tumour, respectively (see FIGS. 17A, 18 A and 19 A). The tumour size was then used for calculations of TGI (%) values (see Table 5). TGI, representing antitumor effectiveness, were calculated using the formula TGI (%)=[1-(Vtreat-t−Vtreat-1)/(Vcontrol-t−Vcontrol-1)]×100, where Vtreat-1 and Vcontrol-1 are the mean volumes of the treated and control groups on grouping day; Vtreat-t and Vcontrol-t are the mean volumes of the treated and control groups on a given day. Animals were euthanized when tumour volumes reached 2000 mm^3. Body weight was also measured thrice weekly as a measure of compound toxicity (see FIGS. 17 B, 18 B and 19 B).

The subject of another assay is BxPC3 xenograft. The assay is described as follows: In vivo efficacy study in BxPC3 xenograft model. Set-up: species or system mice. Here is the method: Conjugate doses of 0.4 mg/kg (5.3 nmol of conjugated drug/kg), 1 mg/kg (13 nmol of conjugated drug/kg) for ADC-2 and ADC-3, and 0.2 mg/kg (5.3 nmol of conjugated drug/kg) and 0.5 mg/kg (13 nmol of conjugated drug/kg) for Cantuzumab ravtansine were used.

Assay [2] addresses CanAg antigen (human) (UniProt P15941). As to the kind of experiment: flow cytometry on CanAg positive Colo205 cells, AF488 anti-human IgG secondary, MFI curve.
Assay [3] shares this target. The assay is described as follows: flow cytometry on HT-29 cells, 20 µg/mL PE conjugate, Quantibrite PE beads. For orientation: In flow cytometry, cells or beads pass a laser one at a time.
For assay [4] the target is unchanged. As to the kind of experiment: flow cytometry on N87 cells, 20 µg/mL PE conjugate, Quantibrite PE beads.
For assay [5] the target is unchanged. The assay is described as follows: flow cytometry on BxPC3 cells, 20 µg/mL PE conjugate, Quantibrite PE beads.
For assay [6] the target is unchanged. As to the kind of experiment: flow cytometry on SNU-16 cells, 20 µg/mL PE conjugate, Quantibrite PE beads.
Assay [7] shares this target. The assay is described as follows: flow cytometry on Colo205 cells, 20 µg/mL PE conjugate, Quantibrite PE beads.

Residue numbers refer to the chain shown, from its start.

One may read the EC50 as the concentration needed to bring the measured effect to its halfway point. Read a low EC50 as higher potency in that assay.

B1: Cantuzumab ravtansine: humanised ADC targeting CanAg: cantuzumab (HuC242) conjugated to the cytotoxic maytansinoid drug ravtansine; DAR 4.0 (conjugate, chains of the INN, looked up)
VH: QVQLVQSGAEVKKPGETVKISCKASDYTFTYYGMNWVKQAPGQGLKWMGWIDTTTGEPTYAQKFQGRIAFSLETSASTAYLQIKSLKSEDTATYFCARRGPYNWYFDVWGQGTTVTVSS
VL: DIVMTQSPLSVPVTPGEPVSISCRSSKSLLHSNGNTYLYWFLQRPGQSPQLLIYRMSNLVSGVPDRFSGSGSGTAFTLRISRVEAEDVGVYYCLQHLEYPFTFGPGTKLELK
modifications: ravtansine maytansinoid payload, DAR 4.0
notes: humanised ADC targeting CanAg: cantuzumab (HuC242) conjugated to the cytotoxic maytansinoid drug ravtansine; DAR 4.0
With B1, in assay [1], the “TGI [%] at 33 day” value is on record as 43%. The cells killed in the assay on Colo-205 cells was 75%. Further, in the assay with Colo-205 xenograft, the “TGI [%] at 15 day” value is listed as 40%. Also, the “anti-tumour response (in words)” value in the assay with BxPC3 xenograft (0.2 mg/kg and 0.5 mg/kg, in comparison to ADC-2 and ADC-3 at the same conjugated drug doses (FIG. 20)) is listed as “weak anti-tumour response”. Besides, the “time at which tumour started to regrow” value with BxPC3 xenograft (2 mg/kg (53 nmol drug/kg)) is recorded as above 32 days. Besides, the “tumour inhibition (in words)” value in the assay with BxPC3 xenograft (2 mg/kg (53 nmol drug/kg) (FIG. 21 A)) is given as “complete tumour inhibition”. For the same molecule, the “TGI [%] at 29 or 32* day” value is reported as 24.3% with BxPC3 xenograft (single intravenous dose 0.2 mg/kg (5.3 nmol drug/kg), day 29); 34.6% with BxPC3 xenograft (single intravenous dose 0.5 mg/kg (13 nmol drug/kg), day 29); 104* % in the assay with BxPC3 xenograft (single intravenous dose 2 mg/kg (53 nmol drug/kg), day 32).

B2: HC1 + LC1 (antibody, human IgG1, kappa, V domains shown)
VH: QVQLVQSGAEVKKPGASVKVSCKASDYTFTYYGINWVRQAPGQGLEWMGWIDTTTGEPNYAQKLQGRVTFTLDTSASTAYMELRSLRSDDTAVYYCARRGPYNWYFDVWGQGTLVTVSS
VL: DIVMTQTPLSLPVTPGEPASISCRSSKSLLHSNGNTYLYWYLQKPGQSPQLLIYRMSNRASGVPDRFSGSGSGTDFTLKISRVEAEDVGVYYCLQHLEYPFTFGPGTKVDIKR
B2: in the assay with CanAg antigen (human) [2], the EC50 came to 0.274 µg/mL.

B3: HC3 + LC2 (antibody, human IgG1, kappa, V domains shown)
VH: B2 VH with P41T, N59T, L64F, D73E, A76I, R84S, D89E, Q111A
VL: B2 VL with T7S, R59L
Molecule B3 showed an EC50 with CanAg antigen (human) [2] of 0.327 µg/mL.

B4: HC3 + LC1 (antibody, human IgG1, kappa, V domains shown)
VH: B2 VH with P41T, N59T, L64F, D73E, A76I, R84S, D89E, Q111A
VL: B2 VL
On to B4, for which, in the assay with CanAg antigen (human) [2], the EC50 was 0.266 µg/mL.

B5: HC3 + LC3 (antibody, human IgG1, kappa, V domains shown)
VH: B2 VH with P41T, N59T, L64F, D73E, A76I, R84S, D89E, Q111A
VL: B2 VL with P12S, E17Q, R24K, R59L, A60F
On to B5, for which the EC50 with CanAg antigen (human) [2] turned out to be 0.294 µg/mL.

B6: HC2 + LC2 (antibody, human IgG1, kappa, V domains shown)
VH: B2 VH with I34M, N59S, L64F, A79V, R84S, D89E
VL: B2 VL with T7S, R59L
B6 yielded an EC50 in the assay with CanAg antigen (human) [2] of 0.408 µg/mL.

B7: Phycoerythrin (PE)-conjugated HC1LC1 antibody (antibody, V domains shown)
VH: B2 VH
VL: B2 VL
modifications: R-phycoerythrin conjugated by Lightning-Link kit; sites not stated
As for B7, the PE molecules per cell (PE molecules per cell) amounted to 626000 with CanAg antigen (human) [3]; 2570 with CanAg antigen (human) [4]; 75300 with CanAg antigen (human) [5]; 1.15e+07 with CanAg antigen (human) [6]; 2.61e+06 with CanAg antigen (human) [7].

B8: HC1 + LC3 (antibody, human IgG1, kappa, V domains shown)
VH: B2 VH
VL: B2 VL with P12S, E17Q, R24K, R59L, A60F
B8: the EC50 in the assay with CanAg antigen (human) [2] is 0.305 µg/mL.

B9: HC2 + LC1 (antibody, human IgG1, kappa, V domains shown)
VH: B2 VH with I34M, N59S, L64F, A79V, R84S, D89E
VL: B2 VL
B9 registered an EC50 with CanAg antigen (human) [2] of 0.351 µg/mL.

B10: HC2 + LC3 (antibody, human IgG1, kappa, V domains shown)
VH: B2 VH with I34M, N59S, L64F, A79V, R84S, D89E
VL: B2 VL with P12S, E17Q, R24K, R59L, A60F
In turn, B10 registered an EC50 with CanAg antigen (human) [2] of 0.354 µg/mL.

B11: HC1 + LC2 (antibody, human IgG1, kappa, V domains shown)
VH: B2 VH
VL: B2 VL with T7S, R59L
Turning to B11, the half-maximal effective concentration (EC50) with CanAg antigen (human) [2] is 0.268 µg/mL.

Values taken from patent publication US20250213711A1, “ANTI-CANAG ANTIBODY CONJUGATE” (IKSUDA THERAPEUTICS LIMITED, priority 2022, published 2025).
